Measurements reported in patent US20210079074A1.

Columns and labels:
[1] = target: FcγRIIa receptor (H131 variant) (UniProt P12318); test: cell-based or functional assay
[2] = target: FcγRIIIa receptor (V158 variant) (UniProt P08637); test: cell-based or functional assay
FcγRIIIa receptor (V158 variant), sequence (P08637 other isoform, or with tags, fused parts or gaps mutant limits assumed): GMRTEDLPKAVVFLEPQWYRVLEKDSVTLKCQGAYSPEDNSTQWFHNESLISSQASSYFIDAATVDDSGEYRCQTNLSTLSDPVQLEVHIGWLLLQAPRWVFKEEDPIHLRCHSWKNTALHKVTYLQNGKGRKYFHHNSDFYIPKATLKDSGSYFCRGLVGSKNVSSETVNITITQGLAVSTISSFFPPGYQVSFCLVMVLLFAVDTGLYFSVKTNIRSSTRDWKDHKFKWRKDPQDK

FcγRIIa receptor (H131 variant), sequence (P12318 34-317 limits assumed, change not shown): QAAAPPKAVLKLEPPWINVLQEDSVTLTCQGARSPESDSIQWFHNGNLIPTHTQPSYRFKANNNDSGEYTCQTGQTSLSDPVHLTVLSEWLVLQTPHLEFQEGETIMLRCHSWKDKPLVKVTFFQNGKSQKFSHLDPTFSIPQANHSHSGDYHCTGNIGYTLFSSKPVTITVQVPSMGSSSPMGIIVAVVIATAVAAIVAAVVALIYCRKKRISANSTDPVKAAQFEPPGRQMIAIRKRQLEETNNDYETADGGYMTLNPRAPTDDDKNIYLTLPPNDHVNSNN

isotype control antibody
luminescence, ADCP reporter, 3.048316 ng/mL [1]: 45
luminescence, ADCP reporter, 9.144947 ng/mL [1]: 52
luminescence, ADCP reporter, 27.43484 ng/mL [1]: 42
luminescence, ADCP reporter, 82.30453 ng/mL [1]: 41
luminescence, ADCP reporter, 246.9136 ng/mL [1]: 54
luminescence, ADCP reporter, 740.7407 ng/mL [1]: 60
luminescence, ADCP reporter, 2,222.222 ng/mL [1]: 57
luminescence, ADCP reporter, 6,666.667 ng/mL [1]: 49
luminescence, ADCP reporter, 20,000 ng/mL [1]: 83
luminescence, ADCC reporter, 3.048316 ng/mL [2]: 314
luminescence, ADCC reporter, 9.144947 ng/mL [2]: 329
luminescence, ADCC reporter, 27.43484 ng/mL [2]: 340
luminescence, ADCC reporter, 82.30453 ng/mL [2]: 377
luminescence, ADCC reporter, 246.9136 ng/mL [2]: 381
luminescence, ADCC reporter, 740.7407 ng/mL [2]: 379
luminescence, ADCC reporter, 2,222.222 ng/mL [2]: 373
luminescence, ADCC reporter, 6,666.667 ng/mL [2]: 431
luminescence, ADCC reporter, 20,000 ng/mL [2]: 399
